# Residue numbers refer to the chain shown, from its start. In names and notes the source's numbering stands.
# T1: Fis1 (mitochondrial fission protein 1), cytosolic domain (Homo sapiens, UniProt Q9Y3D6, T34D)
# T1 construct: cytosolic domain, C-terminal HRV 3C site and His6 tag (cut off), codon optimized, E. coli BL21(DE3); first 30 residues disordered in mutant crystals
# T1 sequence (Q9Y3D6 1-123 T34D): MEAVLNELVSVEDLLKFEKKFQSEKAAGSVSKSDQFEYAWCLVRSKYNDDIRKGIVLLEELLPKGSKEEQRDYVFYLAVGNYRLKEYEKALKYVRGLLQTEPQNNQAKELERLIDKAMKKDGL
# B1: Thr34Asp Fis1, cytosolic domain, tag-free (domain or fragment, human)
# chain: T1 sequence (Q9Y3D6 1-123 T34D)
# notes: Mitochondrial fission protein 1 (Fis1), human, cytosolic domain; also called T34D; phosphorylation mimic-mutant; source: E. coli BL21 (DE3), purified (Ni-NTA, HRV 3C cleavage, reverse Ni-NTA); not shown: His6, C-terminal, cleaved
# B2: Tyr38Glu Fis1, cytosolic domain, tag-free (domain or fragment, human)
# chain: T1 sequence (Q9Y3D6 1-123 T34D) with D34T, Y38E
# notes: Mitochondrial fission protein 1 (Fis1), human, cytosolic domain; also called Y38E; phosphorylation mimic-mutant; source: E. coli BL21 (DE3), purified (Ni-NTA, HRV 3C cleavage, reverse Ni-NTA); not shown: His6, C-terminal, cleaved
# B3: Thr34Glu Fis1, cytosolic domain, tag-free (domain or fragment, human)
# chain: T1 sequence (Q9Y3D6 1-123 T34D) with D34E
# notes: Mitochondrial fission protein 1 (Fis1), human, cytosolic domain; also called phosphorylation mimic-mutant; source: E. coli BL21 (DE3), purified (Ni-NTA, HRV 3C cleavage, reverse Ni-NTA); not shown: His6, C-terminal, cleaved
# How the values were obtained:
# [1] = target: T1, Fis1 (mitochondrial fission protein 1), cytosolic domain; experiment: CPM thiol fluorescence competition; format: binding; details: read-out: apparent IC50
# [2] = target: the molecule itself; experiment: crystal structure; tag-free Fis1 protein/mutant at 8 mg/ml, sitting drop; data at 100 K, SSRL BL12-2; molecular replacement with PDB 1NZN
Molecule,IC50 [1] [µM],binding result [2]
"C=CC(=O)N(C)CCCN1c2ccccc2Sc2ccccc21 [SP22, N-(3-(10H-phenothiazin-10-yl)propyl)-N-methylacrylamide]",15.4,
"CN(CCCN1c2ccccc2Sc2ccccc21)C(=O)CCl [SP11, N-(3-(10H-phenothiazin-10-yl)propyl)-2-chloro-N-methylacetamide]",9.4,
B1,,binds
B2,,binds
B3,,binds

# From article PMC12056058 (Nature Communications, 2025)
